Experimental data from US10889826B2, “Methods and compositions for producing epidermal growth factor (EGF) in soybeans” (ARIZONA BOARD OF REGENTS ON BEHALF OF THE UNIVERSITY OF …, priority 2017, dated 2021).

Legend:
Hela cell EGFR [1] = biological target: T1, Hela cell EGFR (Homo sapiens, UniProt P00533); assay: Immunocytochemistry assay of EGFR internalization in Hela cells; type: cell-based; details: Hela cells treated 6 hours; FIG. 5C
T1 construct: soybean produced hEGF induces a rapid phosphorylation of Hela cell EGFR; endogenous in cells; host or cells: HeLa cells (American Tissue Culture Collection)
Procedure: (§1) Hela cells (obtained from American Tissue Culture Collection) were cultured in Minimum Essential Media (MEM) complemented with 10% Fetal Bovine Serum (FBS), 100 units/ml penicillin, and 100 μg/ml streptomycin. For western blotting assay, cells grown in 6-well plate were kept in serum free MEM media for 24 hours. Cells were then either kept in serum free medium (control) or stimulated with soymilk alone, soy EGF or commercial recombined hEGF for different time period as indicated. Cells were lysed by directly adding 1×SDS sample buffer (50 mM Tris-HCl, pH 6.8, 10% glycerol, 2% SDS and 5% 13-ME) to the cells after washing 3 times with 1×PBS. EGF bio-activity was determined via EGFR phosphorylation and down-stream AKT phosphorylation. Total EGFR was also measured since EGFR is known to undergo internalization when stimulated with EGF. Antibodies used in western blot are anti-p-EGFR (Tyr1068) (#2234, Cell Signaling Technology), anti-total EGFR (#06-847, Millipore), anti-p-AKT (#4060, Cell Signaling Technology) and anti-Lamin B1 (#13435, Cell Signaling Technology). […] EGFR was labeled using anti-EGFR antibody (#4267, Cell Signaling Technology) and detected with Alexa Fluor 594 Goat anti-rabbit IgG (#A11012, life technology). […]

Hela cell EGFR [2] = biological target: T1, Hela cell EGFR; assay: EGF bioactivity in Hela cells by western blotting (pEGFR, total EGFR); type: cell-based; details: for overall EGF bioactivity: internalization, degradation and phosphorylation of EGFR: HeLa cells, compared with commercial rhEGF
Procedure: Hela cells (obtained from American Tissue Culture Collection) were cultured in Minimum Essential Media (MEM) complemented with 10% Fetal Bovine Serum (FBS), 100 units/ml penicillin, and 100 μg/ml streptomycin. For western blotting assay, cells grown in 6-well plate were kept in serum free MEM media for 24 hours. […] Cells were lysed by directly adding 1×SDS sample buffer (50 mM Tris-HCl, pH 6.8, 10% glycerol, 2% SDS and 5% 13-ME) to the cells after washing 3 times with 1×PBS. EGF bio-activity was determined via EGFR phosphorylation and down-stream AKT phosphorylation. Total EGFR was also measured since EGFR is known to undergo internalization when stimulated with EGF. Antibodies used in western blot are anti-p-EGFR (Tyr1068) (#2234, Cell Signaling Technology), anti-total EGFR (#06-847, Millipore), anti-p-AKT (#4060, Cell Signaling Technology) and anti-Lamin B1 (#13435, Cell Signaling Technology). For immunocytochemistry assay, cells were grown on coverslip in 6-well plate and kept in serum free media for 24 hours before stimulation, cells were then either kept in serum free media (control) or stimulated with human or soy EGF for 6 hours. Cells were washed with PBS and fixed with 4% formalin. EGFR was labeled using anti-EGFR antibody (#4267, Cell Signaling Technology) and detected with Alexa Fluor 594 Goat anti-rabbit IgG (#A11012, life technology). The cell nuclei were shown using mounting medium with DAPI (#H-1200, Vectorshield).

[3] = Stability of rhEGF in soymilk, read out by EGFR bioactivity in Hela cells; type: physicochemical; details: in soymilk over 24 hours; bioactivity compared with control rhEGF; FIG. 5B
Procedure: as §1

Substance | internalization of the EGFR (immunohistochemical assay) (Hela cell EGFR [1]) | overall EGF bioactivity: internalization, degradation and phosphorylation of EGFR (Hela cell EGFR [2]; listed as EGF protein produced in soybean seed) | overall EGF bioactivity: internalization, degradation and phosphorylation of EGFR (Hela cell EGFR [2]; listed as soybean-produced hEGF) | internalization and degradation of EGFR (decrease in abundance by immunoblot) (Hela cell EGFR [2]; Hela cells, 0.1 μg/ml, FIG. 5B) | EGFR phosphorylation (pEGFR) (Hela cell EGFR [2]; Hela cells, soymilk from ShEGF soybeans at 0.1, 0.05, 0.025 μg/ml, FIG. 5A) | EGFR degradation (Hela cell EGFR [2]; Hela cells, soymilk from seeds producing ShEGF at 0.1, 0.05, 0.025 μg/ml, FIG. 5A) | degradation of EGF in soymilk [3]
ShEGF: human EGF produced in transgenic soybean seeds from a synthetic soybean codon optimized hEGF gene with N-terminal ER signal (SEQ ID NO: 1) (SLSSAENSDSECPLSHDGYCLHDGVCMYIEALDKYACNCVVGYIGERCQYRDLKWWELR; Modified EGF DNA sequence) | induces internalization of the EGFR comparable to that from control rhEGF | bioactive and comparable to commercially available hEGF | indistinguishable from the bioactivity of commercial rhEGF | induces an internalization and degradation of EGFR | induced pEGFR comparable to control rhEGF | induced concentration-dependent EGFR degradation comparable to the effect of rhEGF | –
rhEGF: commercial recombinant human EGF | – | – | – | – | – | – | not degraded in soymilk over 24 hours
